Target: T1, hUHRF1 tandem tudor domain, 10xHIS-TEV-TTD (aa 126-285) (human, UniProt Q96T88-1 126-285)
T1 sequence (looked up): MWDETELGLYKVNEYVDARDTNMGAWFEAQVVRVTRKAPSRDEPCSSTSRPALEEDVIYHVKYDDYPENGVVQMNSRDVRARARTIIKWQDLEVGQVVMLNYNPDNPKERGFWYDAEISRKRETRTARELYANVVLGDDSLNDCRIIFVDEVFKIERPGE
Assay: MST

B1: hUHRF1 Linker 4 (aa 605-675)-6xHIS (domain or fragment, human, UniProt Q96T88-1 605-675, looked up)
chain: MQYPEGYLEALANREREKENSKREEEEQQEGGFASPRTGKGKWKRKSAGGGPSRAGSPRRTSKKTKVEPYS
Q: Does B1 bind?
A: binds
